For two substances, fold PLA signal over control cell lines results are on record in publication PMC5085163.

For the assay, the target named is transducin-like enhancer of split 1 (TLE1) (human (endogenous in synovial sarcoma and control cell lines and tumor tissue)) (UniProt Q04724). Put plainly: proximity ligation; Duolink In Situ Red kit on cultured cells fixed with 3% formaldehyde and permeabilized with 0.1% Triton X-100; rabbit anti-SS18 and mouse anti-TLE1 primary antibodies overnight at 4°C; nuclear foci per nucleus; also done after HDAC inhibitors, SXT1596 and siRNA/shRNA against SS18-SSX.
Chain of UniProt Q04724 (Q04724 whole entry): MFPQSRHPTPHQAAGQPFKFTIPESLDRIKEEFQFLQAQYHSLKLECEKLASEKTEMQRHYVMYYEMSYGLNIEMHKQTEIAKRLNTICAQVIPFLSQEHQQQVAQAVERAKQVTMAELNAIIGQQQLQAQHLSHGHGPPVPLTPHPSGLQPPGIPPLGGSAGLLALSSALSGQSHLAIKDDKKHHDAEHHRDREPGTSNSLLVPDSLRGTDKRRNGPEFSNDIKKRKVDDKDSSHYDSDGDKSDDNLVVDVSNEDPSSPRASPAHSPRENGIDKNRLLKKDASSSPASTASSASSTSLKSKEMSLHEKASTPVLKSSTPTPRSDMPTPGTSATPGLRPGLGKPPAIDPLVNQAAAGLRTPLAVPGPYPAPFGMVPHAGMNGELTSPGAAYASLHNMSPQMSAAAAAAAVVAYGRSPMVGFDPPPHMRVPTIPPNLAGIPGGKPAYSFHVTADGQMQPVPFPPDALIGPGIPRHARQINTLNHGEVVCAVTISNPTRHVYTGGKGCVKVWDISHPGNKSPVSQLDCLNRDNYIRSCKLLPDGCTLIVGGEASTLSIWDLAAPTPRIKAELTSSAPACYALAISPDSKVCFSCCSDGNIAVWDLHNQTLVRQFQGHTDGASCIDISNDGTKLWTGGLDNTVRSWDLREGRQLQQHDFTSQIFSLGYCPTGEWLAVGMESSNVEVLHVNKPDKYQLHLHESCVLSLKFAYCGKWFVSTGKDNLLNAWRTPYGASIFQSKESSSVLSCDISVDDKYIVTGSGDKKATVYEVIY

With “SS18-SSX1 fusion oncoprotein (natural protein)”, the fold PLA signal over control cell lines is > 10 fold.

Turning to “SS18-SSX2 fusion oncoprotein (natural protein)”, the fold PLA signal over control cell lines was > 10 fold.
